Laboratory results: patent publication US20220396617A1

Target: human TIGIT expressed on HEK293A cells (human) (UniProt Q495A1)
Assay: cell-based or functional assay

Sequence of human TIGIT expressed on HEK293A cells (human) (Q495A1 22-244 limits assumed): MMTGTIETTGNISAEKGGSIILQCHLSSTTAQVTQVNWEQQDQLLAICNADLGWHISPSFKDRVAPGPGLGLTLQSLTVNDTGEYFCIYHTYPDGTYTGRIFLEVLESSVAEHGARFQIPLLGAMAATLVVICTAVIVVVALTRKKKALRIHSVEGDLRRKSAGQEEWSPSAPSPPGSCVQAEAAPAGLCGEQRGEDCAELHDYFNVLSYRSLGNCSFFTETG

NK92-mediated ADCC against HEK293A/human TIGIT cells, EC50: 0.0236 nM
B1: Etigilimab (antibody, INN chains, looked up, human IgG1, V domains shown)
VH: QVQLQESGPGLVKPSETLSLTCAVSGYSITSDYAWNWIRQPPGKGLEWIGYISYSGSTSYNPSLRSRVTISRDTSKNQFFLKLSSVTAADTAVYYCARRQVGLGFAYWGQGTLVTVSS
VL: DIQMTQSPSSLSASVGDRVTITCKASQDVSTAVAWYQQKPGKAPKLLIYSASYRYTGVPSRFSGSGSGTDFTFTISSLQPEDIATYYCQQHYSTPWTFGQGTKVEIK
